T1: human C5a receptor (UniProt P21730 1-350)
T1 chain: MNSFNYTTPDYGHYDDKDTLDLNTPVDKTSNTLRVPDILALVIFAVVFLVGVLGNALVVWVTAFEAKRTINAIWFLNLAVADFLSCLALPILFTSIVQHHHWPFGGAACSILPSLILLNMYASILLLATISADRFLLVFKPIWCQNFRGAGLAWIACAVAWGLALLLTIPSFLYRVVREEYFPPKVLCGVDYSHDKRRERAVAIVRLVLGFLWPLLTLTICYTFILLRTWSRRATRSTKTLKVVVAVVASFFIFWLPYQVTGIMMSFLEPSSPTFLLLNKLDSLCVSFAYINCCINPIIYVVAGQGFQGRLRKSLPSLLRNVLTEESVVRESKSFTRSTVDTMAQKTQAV

B1: mouse anti-C5aR monoclonal antibody 7F3 (antibody, V domains shown)
VH: QVQLQQSGPELVKPGASVKISCKASGYAFSNSWMNWVKQRPGKGLEWIGRIYPGDGDTKYNGKFKGKATLTADKSSSTAYMQLSSLTSEDSAVYFCARFLLISTVTAVDYWGQGTTLTVSS
VL: DVVMTQSPLSLPVSLGNQASISCRSSQSLVHSNGNTYLHWYLQKPGQSPKLLIYKVSNRFSGVPDRFSGSGSGTDFSLKISRVEAEDLGVYFCSQSTLVPLTFGAGTKLELK
B2: humanized anti-C5aR antibody hAb-J (antibody)
light: DVVMTQSPLSLPVTLGEPASISCRSSQSLVHSNGNTYLHWYLQKPGQSPQLLIYKVSNRFSGVPDRFSGSGSGTDFTLKISRVEAEDVGVYFCSQSTLVPLTFGQGTKLEIKTVAAPSVFIFPPSDEQLKSGTASVVCLLNNFYPREAKVQWKVDNALQSGNSQESVTEQDSKDSTYSLSSTLTLSKADYEKHKVYACEVTHQGLSSPVTKSFNRGEC
heavy: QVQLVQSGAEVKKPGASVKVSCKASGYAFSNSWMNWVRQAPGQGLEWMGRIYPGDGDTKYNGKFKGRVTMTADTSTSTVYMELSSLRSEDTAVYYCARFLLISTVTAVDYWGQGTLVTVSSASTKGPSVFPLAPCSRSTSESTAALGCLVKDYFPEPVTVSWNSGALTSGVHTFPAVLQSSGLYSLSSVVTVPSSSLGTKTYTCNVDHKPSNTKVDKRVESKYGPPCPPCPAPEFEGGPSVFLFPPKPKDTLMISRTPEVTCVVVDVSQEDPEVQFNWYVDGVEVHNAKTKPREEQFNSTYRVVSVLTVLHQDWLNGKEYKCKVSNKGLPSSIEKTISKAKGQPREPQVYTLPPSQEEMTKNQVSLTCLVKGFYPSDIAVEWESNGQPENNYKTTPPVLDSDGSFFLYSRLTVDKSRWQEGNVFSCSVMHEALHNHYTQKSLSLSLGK
B3: humanized anti-C5aR antibody hAb-Q (antibody)
light: DVVMTQSPLSLPVTLGEPASISCRSSQSLVHSNGNTYLHWYLQKPGQSPQLLIYKVSNRFSGVPDRFSGSGSGTDFTLKISRVEAEDVGVYFCSQSTLVPLTFGQGTKLEIKRTVAAPSVFIFPPSDEQLKSGTASVVCLLNNFYPREAKVQWKVDNALQSGNSQESVTEQDSKDSTYSLSSTLTLSKADYEKHKVYACEVTHQGLSSPVTKSFNRGEC
heavy: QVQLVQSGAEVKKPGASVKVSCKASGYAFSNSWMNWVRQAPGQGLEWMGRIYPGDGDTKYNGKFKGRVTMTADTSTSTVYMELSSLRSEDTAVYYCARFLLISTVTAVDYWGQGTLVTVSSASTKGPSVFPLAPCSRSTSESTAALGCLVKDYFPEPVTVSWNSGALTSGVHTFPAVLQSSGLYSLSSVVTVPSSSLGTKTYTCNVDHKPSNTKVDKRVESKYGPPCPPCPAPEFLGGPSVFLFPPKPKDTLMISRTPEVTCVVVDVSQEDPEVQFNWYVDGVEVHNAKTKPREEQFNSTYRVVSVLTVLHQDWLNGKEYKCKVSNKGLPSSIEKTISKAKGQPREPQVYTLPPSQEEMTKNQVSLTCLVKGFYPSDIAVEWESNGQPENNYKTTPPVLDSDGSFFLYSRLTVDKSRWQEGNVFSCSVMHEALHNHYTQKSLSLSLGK

Key:
human C5a receptor [1] = molecular target: T1, human C5a receptor; assay: saturation binding to human neutrophils (flow cytometry, MFI); 4 C
human C5a receptor [2] = molecular target: T1, human C5a receptor; assay: as above

Binder | EC50 (human C5a receptor [1]) [µM] | Kd (human C5a receptor [2]) [µM]
B1 | 0.00851 | 0.0092
B2 | 0.0201 | 0.0254
B3 | 0.0216 | 0.0226

— patent publication US20110190477A1 (published 2011)
